In publication PMC10864110:

These binders were tested against GST-PC4 WT (Homo sapiens, UniProt P53999 2-127) (assay: EMSA).

Binder | binding result
CCND1 dsDNA (dsDNA) DNA 1: CAGTAGCAGCGAGCAGCAGAGTCCGCACGCTCCGGCGAGGGGCAGAAGAGCGCGAGGGAGCGCGGGGCAGCAGAAGCGAGAGCCG DNA 2: CGGCTCTCGCTTCTGCTGCCCCGCGCTCCCTCGCGCTCTTCTGCCCCTCGCCGGAGCGTGCGGACTCTGCTGCTCGCTGCTACTG | no binding
LINC00869 dsDNA (dsDNA) DNA 1: TGTAAAGGGTGAGGCATATGAGGCTGCGGCGGGGCGGAGGGGCGTGAGCTTATACTTATGTTTATCTGGCAGAAGAAATGTTATG DNA 2: CATAACATTTCTTCTGCCAGATAAACATAAGTATAAGCTCACGCCCCTCCGCCCCGCCGCAGCCTCATATGCCTCACCCTTTACA | no binding
WDR74 dsDNA (dsDNA) DNA 1: CGTTCCTGGAAGTACTGCAATACCAGGTCGATGCGTGGAGTGGACGGAGCAAGCTCCTATTCCATCTCCTATTTCCAAAAATCCA DNA 2: TGGATTTTTGGAAATAGGAGATGGAATAGGAGCTTGCTCCGTCCACTCCACGCATCGACCTGGTATTGCAGTACTTCCAGGAACG | no binding
